Source: PMC5962072, “Structural insights on the efficient catalysis of hydroperoxide reduction by Ohr: Crystallographic and molecular dynamics approaches” (PLoS ONE, 2018)

Target: Cys61 (UniProt position 61, AGYSACFIGAL)
Test: chemical modification
Conditions: room temperature; Reduced (dithiol) protein after DTT treatment and desalting; no ligand.

## Organic hydroperoxide resistance protein (Ohr, XfOhr) (Xylella fastidiosa)
  pKa: 5.92 ± 0.11
